In assay [1] the target is T1, Compound 15: 5-oxohexanoyl-Ser-Ala-Ser-Thr-Gly-His-Ala-Thr(Tn)-Pro-Leu-Pro-Val-Thr-Asp-Thr-Ser-Cys-NH2 (human).
T1 construct: also called glycopeptide in which Tn has been modified in the tandem unit peptide of MUC4
T1 peptide: {5‑oxohexanoyl}-SASTGHAT(αGalNAc)PLPVTDTSC-NH2
Kind of assay: glycopeptide microarray, Cy3 anti-mouse IgG.
Procedure: (§1) A substrate for an immobilized sugar chain array (made by Sumitomo Bakelite) was treated for 2 hours at 37° C. with 2 M HCl and the t-butoxycarbonyl group (Boc group) protection was removed. The product was washed twice with water and then dried to place aminoxy groups on the surface of the substrate. A spotting solution (25 mM AcOH/pyridine, 0.005% Triton X-100, pH 5.4) was added to the various synthetic glycopeptides shown in Table 1 to dissolve them. A spotter (BioChip Arrayer, made by Cartesion) employed a spot pin (CMP, pin diameter 0.4 mm, Arraylt Corp.) to spot the substrate. A reaction was conducted for 1 hour at 80° C. to immobilize the glycopeptides on the substrate. Washing was conducted once with water, the product was immersed in 10 mg/mL succinic anhydride, a reaction was conducted for 3 hours at room temperature, and the unreacted aminooxy groups were protected. Washing was conducted twice with water and the product was dried.
(§2) The reaction supernatant was diluted 10-fold with the reaction solution given below. A Hybricover (made by Sumitomo Bakelite) was placed on the immobilized glycopeptide array, 70 μL of the diluted solution was spread out, and a reaction was conducted for 2 hours at room temperature. […] Fluorescent intensity of Cy3 was measured with a scanner (Typhoon TRIO+, GE Healthcare). […]

In assay [2] the target is T2, Compound 13: … (human).
T2 construct: also called glycopeptide in which Tn has been modified in the tandem unit peptide of MUC2
T2 peptide: {5‑oxohexanoyl}-PPTT(αGalNAc)T(αGalNAc)PSPPPTSTT(αGalNAc)T(αGalNAc)LPPT-NH2
Kind of assay: glycopeptide microarray, Cy3 anti-mouse IgG.
Procedure: as §1, §2

*: point of attachment. αGalNAc = CC(=O)N[C@@H]1[C@@H](O)[C@@H](O)[C@@H](CO)O[C@@H]1*

B1: Monoclonal antibody SN-101 (antibody, V domains shown)
VH: EVNLEESGGGLVQPGGSMKLSCVASGFTFSNYWMNWVRQSPEKGLEWVAQIRLKSDNYATHYAESVKGRFTISRDDSKSSVYLQMNNLRAEDTGIYYCTGGVFDYWGQGTTLTVSS
VL: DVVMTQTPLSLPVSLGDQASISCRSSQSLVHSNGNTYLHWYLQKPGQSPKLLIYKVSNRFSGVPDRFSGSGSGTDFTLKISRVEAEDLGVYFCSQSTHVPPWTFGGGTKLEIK
notes: Mouse monoclonal antibody from a hybridoma; it was purified on Protein G and detected with anti-mouse IgG; The array assay used culture supernatant diluted 10-fold; also called antibody of hybridoma strain 3A9-4B1 (NITE BP-01845)
With B1, the binding result in assay [1] and in assay [2] was “no binding” throughout.

The record behind these values is US20170198056A1 (MEDICINAL CHEMISTRY PHARMACEUTICALS, published 2017).
